# Assay results taken from the supplement of paper PMC11246515.
# ± gives the standard deviation of the averaged measurements.
# Assay: total protein half-life in vivo (active degradation + dilution); higher = more stable protein
# [1] = E. coli NCM3722 delta-clpP delta-lon delta-hslV, growth: N-lim chemostat, doubling time 6 h
# [2] = E. coli NCM3722 delta-clpP, growth: N-lim chemostat, doubling time 6 h
# [3] = E. coli NCM3722 delta-hslV, growth: N-lim chemostat, doubling time 6 h
# [4] = E. coli NCM3722 delta-lon, growth: N-lim chemostat, doubling time 6 h
# [5] = E. coli NCM3722 delta-smpB, growth: N-lim chemostat, doubling time 6 h
# [6] = wild type E. coli NCM3722, growth: C-lim chemostat, doubling time 3 h
# [7] = wild type E. coli NCM3722, growth: C-lim chemostat, doubling time 6 h
# [8] = wild type E. coli NCM3722, growth: C-lim chemostat, doubling time 12 h
# [9] = wild type E. coli NCM3722, growth: N-lim chemostat, doubling time 6 h
# [10] = wild type E. coli NCM3722, growth: N-lim chemostat, doubling time 12 h
# [11] = wild type E. coli NCM3722, growth: P-lim chemostat, doubling time 6 h
# [12] = wild type E. coli NCM3722, growth: P-lim chemostat, doubling time 12 h
Sequence,total protein half-life in vivo [1] [h],total protein half-life in vivo [2] [h],total protein half-life in vivo [3] [h],total protein half-life in vivo [4] [h],total protein half-life in vivo [5] [h],total protein half-life in vivo [6] [h],total protein half-life in vivo [7] [h],total protein half-life in vivo [8] [h],total protein half-life in vivo [9] [h],total protein half-life in vivo [10] [h],total protein half-life in vivo [11] [h],total protein half-life in vivo [12] [h]
MTTHLVWFRQDLRLHDNLALAAACRNSSARVLALYIATPRQWATHNMSPRQAELINAQLNGLQIALAEKGIPLLFREVDDFVASVEIVKQVCAENSVTHLFYNYQYEVNERARDVEVERALRNVVCEGFDDSVILPPGAVMTGNHEMYKVFTPFKNAWLKRLREGMPECVAAPKVRSSGSIEPSPSITLNYPRQSFDTAHFPVEEKAAIAQLRQFCQNGAGEYEQQRDFPAVEGTSRLSASLATGGLSPRQCLHRLLAEQPQALDGGAGSVWLNELIWREFYRHLITYHPSLCKHRPFIAWTDRVQWQSNPAHLQAWQEGKTGYPIVDAAMRQLNSTGWMHNRLRMITASFLVKDLLIDWREGERYFMSQLIDGDLAANNGGWQWAASTGTDAAPYFRIFNPTTQGEKFDHEGEFIRQWLPELRDVPGKVVHEPWKWAQKAGVTLDYPQPIVEHKEARVQTLAAYEAARKGK,5.62 ± 0.31,6.1 ± 1,6.2 ± 0.4,6.08 ± 0.8,5.35 ± 0.34,3.23 ± 0.22,6.25 ± 0.49,11.533 ± 0.011,5.49 ± 0.16,11.1 ± 0.21,6.17 ± 0.76,11.62 ± 0.014
MTTILKHLPVGQRIGIAFSGGLDTSAALLWMRQKGAVPYAYTANLGQPDEEDYDAIPRRAMEYGAENARLIDCRKQLVAEGIAAIQCGAFHNTTGGLTYFNTTPLGRAVTGTMLVAAMKEDGVNIWGDGSTYKGNDIERFYRYGLLTNAELQIYKPWLDTDFIDELGGRHEMSEFMIACGFDYKMSVEKAYSTDSNMLGATHEAKDLEYLNSSVKIVNPIMGVKFWDESVKIPAEEVTVRFEQGHPVALNGKTFSDDVEMMLEANRIGGRHGLGMSDQIENRIIEAKSRGIYEAPGMALLHIAYERLLTGIHNEDTIEQYHAHGRQLGRLLYQGRWFDSQALMLRDSLQRWVASQITGEVTLELRRGNDYSILNTVSENLTYKPERLTMEKGDSVFSPDDRIGQLTMRNLDITDTREKLFGYAKTGLLSSSAASGVPQVENLENKGQ [P0A6E4],4.11 ± 0.6,3.3 ± 0.15,3.2 ± 0.23,3.89 ± 0.34,3.26 ± 0.15,3.17 ± 0.06,5.27 ± 0.081,9.91 ± 0.69,3.39 ± 0.12,4.82 ± 0.071,5.69 ± 0.15,10.7 ± 0.7
MTTIVSVRRNGHVVIAGDGQATLGNTVMKGNVKKVRRLYNDKVIAGFAGGTADAFTLFELFERKLEMHQGHLVKAAVELAKDWRTDRMLRKLEALLAVADETASLIITGNGDVVQPENDLIAIGSGGPYAQAAARALLENTELSAREIAEKALDIAGDICIYTNHFHTIEELSYKA [P0A7B8],–,5.42 ± 0.062,–,6.49 ± 0.19,5.3 ± 0.5,2.72 ± 0.33,6.23 ± 0.091,10.2 ± 1.4,5.716 ± 0.023,9.85 ± 1,5.74 ± 0.23,–
MTTKRKPYVRPMTSTWWKKLPFYRFYMLREGTAVPAVWFSIELIFGLFALKNGPEAWAGFVDFLQNPVIVIINLITLAAALLHTKTWFELAPKAANIIVKDEKMGPEPIIKSLWAVTVVATIVILFVALYW [P0A8Q0],5.7 ± 0.4,–,5.78 ± 0.49,6.06 ± 0.09,6.13 ± 0.39,2.81 ± 0.031,5.55 ± 0.079,10.9 ± 0.46,5.63 ± 0.14,11.3 ± 1.9,5.09 ± 0.12,12.5 ± 0.33
MTTLAIDIGGTKLAAALIGADGQIRDRRELPTPASQTPEALRDALSALVSPLQAHAQRVAIASTGIIRDGSLLALNPHNLGGLLHFPLVKTLEQLTNLPTIAINDAQAAAWAEFQALDGDITDMVFITVSTGVGGGVVSGCKLLTGPGGLAGHIGHTLADPHGPVCGCGRTGCVEAIASGRGIAAAAQGELAGADAKTIFTRAGQGDEQAQQLIHRSARTLARLIADIKATTDCQCVVVGGSVGLAEGYLALVETYLAQEPAAFHVDLLAAHYRHDAGLLGAALLAQGEKL,4.69 ± 0.65,4.78 ± 0.069,4.19 ± 0.69,3.56 ± 1.9,4.85 ± 0.36,2.57 ± 0.17,5 ± 0.45,9.07 ± 0.36,5.02 ± 0.21,5.13 ± 2.2,–,10.5 ± 0.22
MTTLLNPYFGEFGGMYVPQILMPALRQLEEAFVSAQKDPEFQAQFNDLLKNYAGRPTALTKCQNITAGTNTTLYLKREDLLHGGAHKTNQVLGQALLAKRMGKTEIIAETGAGQHGVASALASALLGLKCRIYMGAKDVERQSPNVFRMRLMGAEVIPVHSGSATLKDACNEALRDWSGSYETAHYMLGTAAGPHPYPTIVREFQRMIGEETKAQILEREGRLPDAVIACVGGGSNAIGMFADFINETNVGLIGVEPGGHGIETGEHGAPLKHGRVGIYFGMKAPMMQTEDGQIEESYSISAGLDFPSVGPQHAYLNSTGRADYVSITDDEALEAFKTLCLHEGIIPALESSHALAHALKMMRENPDKEQLLVVNLSGRGDKDIFTVHDILKARGEI [P0A879],3.87 ± 0.32,3.49 ± 0.14,3.48 ± 0.17,3.69 ± 0.27,3.78 ± 0.36,2.95 ± 0.1,5.28 ± 0.27,9.833 ± 0.072,3.54 ± 0.042,5.38 ± 0.17,6.4 ± 1.5,11.5 ± 1.2
